Experimental data reported in paper PMC2606688, “High-fidelity correction of genomic uracil by human mismatch repair activities”.

Assays:
[1] = target: T1, MSH2 (MutSα subunit);MSH6 (MutSα subunit) (Homo sapiens;Homo sapiens, UniProt P43246;P52701 1-934;1-1360, |); test: EMSA; apparent Kd; homoduplex competitor EDL365/EDL366 in reaction; no Mg2+, 1 mM EDTA; 25 mM Tris pH 7.7, 100 mM KCl, 1 mM EDTA, 1 mM DTT, 7.5% glycerol, 10 fmol labeled duplex in 30 µl, homoduplex competitor, on ice 5 min; 6% native PAGE in 0.5x; conditions: protein: recombinant;recombinant; tags: ;; copies: 1;1; label: 5'-32P on strand 1 (EDL56); blunt, 30 bp, single U•G mismatch
[2] = target: T1, MSH2 (MutSα subunit);MSH6 (MutSα …); test: competition; unlabeled N1 at 50-fold molar excess against labeled N1 (EMSA); 25 mM Tris pH 7.7, 100 mM KCl, 1 mM EDTA, 1 mM DTT, 7.5% glycerol, 10 fmol labeled duplex in 30 µl, homoduplex competitor, on ice 5 min; 6% native PAGE in 0.5x; conditions: protein: recombinant;recombinant; tags: ;; copies: 1;1; label: 5'-32P on strand 1 (EDL56); blunt, 30 bp, single U•G mismatch

B1: U•G duplex (EDL56/EDL364) (dsDNA)
DNA 1: GCCGAATTTCTAGAATUGAAAGCTTGCTAG
DNA 2: CTAGCAAGCTTTCGATTCTAGAAATTCGGC
modifications: deoxyuridine at position 17 of strand 1, mispaired with G
In the case of B1, the Kd [1] is reported as 70 nM and the binding signal [2] is reported as > 5 fold decrease of probe binding.
